Data taken from article PMC5190049, “Immunogenicity of mammary tumor cells can be induced by shikonin via direct binding-interference with hnRNPA1” (Oncotarget, 2016).

Experiments:
hnRNPA1 (UP1) = target: T1, hnRNPA1 (UP1) (Homo sapiens, UniProt P09651); experiment: isothermal titration calorimetry; type: binding
T1 construct: UP1, first 196 amino acids (N-terminal fragment with both RRMs); pET-42a, GST-His tag cut by Factor Xa; E. coli BL21(DE3)

[1] = target: T2, hnRNPA1 N-terminal fragment (UP1) (human, UniProt P09651 1-196); experiment: ITC; N = 1.17 +/- 0.128; pH 7.0; 3 uM UP1, 60 uM RNA; Kd not given in text; EMSA: 20 mM HEPES, 50 mM KCl, 1 mM EDTA, 5 mM MgCl2, 0.1 mg/ml tRNA, 0.1 mg/ml BSA, 5 mM DTT, 10% glycerol, room temperature; ITC: 300 mM NaCl, 50 mM Tris-HCl; conditions: protein: recombinant; tags: GST-His fusion tag removed with Factor Xa
[2] = target: T2, hnRNPA1 N-terminal fragment (UP1); experiment: EMSA; without shikonin; shikonin 0-4 ug/test disrupts binding dose-dependently; EMSA: 20 mM HEPES, 50 mM KCl, 1 mM EDTA, 5 mM MgCl2, 0.1 mg/ml tRNA, 0.1 mg/ml BSA, 5 mM DTT, 10% glycerol, room temperature; ITC: 300 mM NaCl, 50 mM Tris-HCl; conditions: protein: recombinant; tags: GST-His fusion tag removed with Factor Xa; label: 5'-biotin
[3] = target: T2, hnRNPA1 N-terminal fragment (UP1); experiment: EMSA; without shikonin; shikonin 0-4 ug/test disrupts binding; EMSA: 20 mM HEPES, 50 mM KCl, 1 mM EDTA, 5 mM MgCl2, 0.1 mg/ml tRNA, 0.1 mg/ml BSA, 5 mM DTT, 10% glycerol, room temperature; ITC: 300 mM NaCl, 50 mM Tris-HCl; conditions: protein: recombinant; tags: GST-His fusion tag removed with Factor Xa; label: 5'-biotin
[4] = target: T2, hnRNPA1 N-terminal fragment (UP1); experiment: EMSA; shikonin 0-4 ug/test; EMSA: 20 mM HEPES, 50 mM KCl, 1 mM EDTA, 5 mM MgCl2, 0.1 mg/ml tRNA, 0.1 mg/ml BSA, 5 mM DTT, 10% glycerol, room temperature; ITC: 300 mM NaCl, 50 mM Tris-HCl; conditions: protein: recombinant; tags: GST-His fusion tag removed with Factor Xa; label: 5'-biotin

T2 sequence (P09651 1-196): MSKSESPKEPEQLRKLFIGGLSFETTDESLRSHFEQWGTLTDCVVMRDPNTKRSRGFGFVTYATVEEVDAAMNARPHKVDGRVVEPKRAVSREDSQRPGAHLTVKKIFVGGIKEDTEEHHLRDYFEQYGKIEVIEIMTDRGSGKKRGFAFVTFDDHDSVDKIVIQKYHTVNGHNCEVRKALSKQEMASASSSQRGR
T1 sequence (P09651 1-196): as above

CC(C)=CC[C@@H](O)C1=CC(=O)c2c(O)ccc(O)c2C1=O [shikonin]
Kd (hnRNPA1 (UP1)): 71.2 µM

AUUUAGGGAUUUAGGGAAUG (ssRNA) [WT RNA (ITC)]
binding result [1]: binds

TTAGGGTTAGCG (ssDNA) [TR2]
binding result [2]: binds

AUUUAGGGAUUUAGGGAAUG (ssRNA) [WT RNA]
binding result [3]: binds

AUUUCGGGAUUUCGGGAAUG (ssRNA) [M3 RNA (called M2 in Figure 2c legend)]
binding result [4]: no binding
